Measurements taken from the DeepSol protein solubility set.

Test: soluble on expression in E. coli; label from the status in PepcDB or PDB records

| Sequence | soluble on expression in E. coli |
| --- | --- |
| MTQEIDIGKYHQLALQKQKEHRKFLATLKKKAPKNLDKIVQEVHTEVFREIDCTKCANCCKILGPLFTESDISRIAKHFRMRLPVFEDMYLRVDEDNDKVFKSMPCPFLGEDNLCFIYDVRPKACREFPHTDRKKIYQINHLTIQNTLICPAVYLFVEKLQERLALEHHHHHH | soluble |
| MPKKVVPEEARRRRRPTRQGAVLSEGLIVRTALRMLREHGTGGLTARRLGAALGADPSTLYRYFAGMDDLARAVGNELMGQALDGWTAQGDWRADLRSLGLALHSSYLAHPQAAVLTASRVSGRPREIAVDEAILGLLRGAGLTDRAAVRFYHAFIDLALAFAALDAGSLALPEEARRSDEDMWGTTYARLPAETHPNIAATAERLAARMPHSAYPVVLDTLLDGIAAELTGTAPEM | not soluble |
| MPAVSKGDGMRGLAVFISDIRNCKSKEAEIKRINKELANIRSKFKGDKALDGYSKKKYVCKLLFIFLLGHDIDFGHMEAVNLLSSNRYTEKQIGYLFISVLVNSNSELIRLINNAIKNDLASRNPTFMGLALHCIANVGSREMAEAFAGEIPKILVAGDTMDSVKQSAALCLLRLYRTSPDLVPMGDWTSRVVHLLNDQHLGVVTAATSLITTLAQKNPEEFKTSVSLAVSRLSRIVTSASTDLQDYTYYFVPAPWLSVKLLRLLQCYPPPEDPAVRGRLTECLETILNKAQEPPKSKKVQHSNAKNAVLFEAISLIIHHDSEPNLLVRACNQLGQFLQHRETNLRYLALESMCTLASSEFSHEAVKTHIETVINALKTERDVSVRQRAVDLLYAMCDRSNAQQIVAEMLSYLETADYSIREEIVLKVAILAEKYAVDYTWYVDTILNLIRIAGDYVSEEVWYRVIQIVINRDDVQGYAAKTVFEALQAPACHENLVKVGGYILGEFGNLIAGDPRSSPLIQFNLLHSKFHLCSVPTRALLLSTYIKFVNLFPEVKATIQDVLRSDSQLKNADVELQQRAVEYLRLSTVASTDILATVLEEMPPFPERESSILAKLKKKKGGS | soluble |
| MGSDKIHHHHHHMMSGHNKWANIKHRKMAQDAKKSKIFTKLIREIIVAAREGGGNIETNPRLRAAVERARAENMPKENIERAIKRGTGELEGVDYQEVIYEGYAPGGVAVYIRALTDNKNRTAQELRHLFNKYGGSLAESGSVSWIFERKGVIEISRDKVKDLEELMMIAIDAGAEDIKDAEDPIQIITAPENLSEVKSKLEEAGYEVEAKVTFIPKNTVKVTGKDAEKVLEFLNALEDMDDVQEVYSNFEMDDKEMEEILSRLEG | not soluble |
| MGSDKIHHHHHHMPVAKKYFEIRWHGRAGQGAKSASQMLAEAALEAGKYVQAFPEYGAERTGAPMRAFNRIGDEYIRVRSAVENPDVVVVIDETLLSPAIVEGLSEDGILLVNTVKDFEFVRKKTGFNGKICVVDATDIALQEIKRGIPNTPMLGALVRVTGIVPLEAIEKRIEKMFGKKFPQEVIDANKRALRRGYEEVKCSE | soluble |
| KKSPSAGSGSNGGNKKISQEEGEDNGGEDNKKLRGALSSAILSEKPNVKWEDVAGLEGAKEALKEAVILPVKFPHLFKGNRKPTSGILLYGPPGTGKSYLAKAVATEANSTFFSVSSSDLVSKWMGESEKLVKQLFAMARENKPSIIFIDQVDALTGTRGEGESEASRRIKTELLVQMNGVGNDSQGVLVLGATNIPWQLDSAIRRRFERRIYIPLPDLAARTTMFEINVGDTPSVLTKEDYRTLGAMTEGYSGSDIAVVVKDALMQPIRKIQSATHFKDVSTEDDETRKLTPSSPGDDGAIEMSWTDIEADELKEPDLTIKDFLKAIKSTRPTVNEDDLLKQEQFTRDFGQEGN | soluble |
| MGSDKIHHHHHHMKVAVIGAKGQLGTDLVDVLKEEFTVYPLTHEDVDVAVSESLEVLRDIHPDVIINTAAYVRVDDAENHAEKAFAVNAIGALNVARISSEIDAVNIYISTDYVFDGEKGEPYVETDKPNPINVYGASKYAGEILTKNYSEKHYVIRVASLYGKAGASGKGGNFVNWVVDMARKGQELRIVADQFMSPTYTKDVALAVREFLKLRPDYGIYHMVNDGYCSWFEFTKAIFEILDWDVEIQPIKSSELNRLARRPAFSALQNYKLERIGIKMRHWREALRDYLAEKGLV | not soluble |
| MKRIGVLTSGGDSPGMNAAIRAVVRKAIFHDIEVYGIYHGYAGLISGHIEKLELGSVGDIIHRGGTKLYTARCPEFKDPEVRLKGIEQLKKHGIEGLVVIGGDGSYQGAKKLTEQGFPCVGVPGTIDNDIPGTDFTIGFDTALNTVIDAIDKIRDTATSHERTYVIEVMGRHAGDIALWAGLADGAETILIPEEEYDMEDVIARLKRGSERGKKHSIIVVAEGVGSAIDIGKHIEEATNFDTRVTVLGHVQRGGSPSAQDRVLASRLGARAVELLIAGKGGRCVGIQDNKLVDHDIIEALAQKHTIDKDMYQLSKELSI | not soluble |
| ANRHPAKVVSTRYFPQARVMELVLAPSNNGQGKPWQGHKAGQFAYVRFGNEDPHPFTIVSGEHEPEVRFLIKELGDFTTDLYHRVKIGEEVMVEGPYGRLA | not soluble |
| MAHHHHHHMMEERYNPFTGYQTPRHQQQSYRHNGGAMSRGGWGERVDAPADKMKPVDWTRVKLVPGSWKVLDTKAIHRAAHAKAEVVPAKQLTEEESNEWRETHTISIFGEGCPPPLSNFDQLSAFVPAYLQKKLTAQGFTSPTAVQAQAWPILLRGRDMVGVAKTGSGKTLAFMVPALAHIAMQEPLRTGDGPMVVVLAPTRELAQQIEQETKKVLPHDLRCGCVYGGAPKGPQLGILRNGVHILVATPGRLIDFLEIKRVNFFRVTYLVLDEADRMLDMGFEPQVRAICGQIRPDRQTLMFSATWPKEIQRLAAEFQKDWIRINVGSTELLANKDVTQHFILTQEHAKMEELKKLLANHRNQRVLIFCKTKRTADDLEWQLKRWGYDAMAIHGDKEQRQREFILERFRKDPRLCLVATDVAARGLDIKELETVINYDFPMQIDDYVHRIGRTGRAGAKGEAFTLITKREQQITPAVVTELIAIVDRAQQQVPDWLREWGEQRPRYQVMKRNRNMMGFGSSRHMPALYNGNRASFDAAGGGHPGNNNGTAGNKRGGEGGVFGLARHGSNGAAPFSSSRIEYKRFDDSDDDDGAAPPAKKRSK | soluble |
| MTTHSAHLLRRLNPYCAQALAGAATLCQTRAHAEITVEHWLLKLLEQGEGDITVIARRYEWDMDSLWQGLLSHLDTLPRTVQGKPQLSAALQQLIKNAWLDASLQENADAVRSVHLMAALIATPSLLVAEAAWPLLSLSTTQLQRLLPLLDNQSDERPEVQQAAALADSPVNLTDEAATVTSASGQPQLNDALQAALDKFTLDVTAKARANQIDPIFGRDSEIRQMIDILSRRRKNNPILVGEPGVGKTALVEGLALRIADGNVPDSLKTVSVRTLDLGLLQAGAGVKGEFEQRLKNVIEAVQQSPSPVLLFIDEAHTIIGAGNQAGGADAANLLKPALARGELRTIAATTWSEYKQYFERDAALERRFQMVKVDEPDDDTACLMLRGLKERYATHHGVHILDAAITAAVTLSRRFLTGRQLPDKAVDLLDTAGARVRMSIDTLPTALMEINAELAALAMEQQAIEQDLLLLPNVSSTRLPEIEQRRAALAVGQHTLEQQYKEEKRLTTLIIEARQDIANAAHLVALQEELVQIQGNAPLLSLDVDVRTVAAVIADWTGVPLGSLLKDEQTNLLSLENRLGERVIGQDAALGALAQRLRAAKTGLTSENGPLGVFLLVGPSGIGKTETALALADSLFGGEKSLITINLSEYQEAHTVSQLKGSPPGYVGYGQGGVLTEAVRKRPYSVVLLDEVEKAHRDVLNLFYQVFDRGFMRDGEGREIDFRNTVIVMTANLGSDHLMQLLDEQPDAPDSTLHELLRPILRDHFQPALLARFQTLIYRPLQVDALKRIVAIKLNQVAQRLHCHYGLSCQIEDSLTDTLVAACLLPDTGARNIDSLLNQQILPVLSQQLLSRMSEQQRTTSLTLGWHEEDGITLTFEGE | not soluble |
| MKYKSGIFAAIHETMQGLHDIGAIDKKTMRGFDKSCLTEIKPLSGGDIKAIREKEALSQAAFAIYLNVGKNHVSAWERGVKKPSGAALKLLTIVKNKGIEAIA | not soluble |
| MLKTISPLISPELLKVLAEMGHGDEIIFSDAHFPAHSMGPQVIRADGLLVSDLLQAIIPLFELDSYAPPLVMMAAVEGDTLDPEVERRYRNALSLQAPCPDIIRINRFAFYERAQKAFAIVITGERAKYGNILLKKGVTP | soluble |
